{"source": "the supplement of paper PMC10567573", "proteins": {"B1": {"name": "TRIM55 WT (peptide)", "chain": "YKSFSKEQQTMDNLEKQLICPICL"}, "B2": {"name": "PWWP2B WT (peptide)", "chain": "TIRLRPRQVLCEKCKSTLSPPEAS"}, "B3": {"name": "NECAB1 WT (peptide)", "chain": "NLDTEELCEYFSQHLGEYENVLAA"}, "B4": {"name": "C8orf76 WT (peptide)", "chain": "YCAKLCEPQWFYEETESSDDVEVL"}, "B5": {"name": "TRIM55 WT (peptide)", "chain": "FQMEKIEHGYENMNHFTVNLNREE"}, "B6": {"name": "CCNC WT (peptide)", "chain": "QSSHYLQWILDKQDLLKERQKDLK"}, "B7": {"name": "TRIM55 WT (peptide)", "chain": "YLPTRGGTTMASGGRFRCPSCRHE"}, "B8": {"name": "ZNF232 WT (peptide)", "chain": "HSGEKPFICKECGKAYGWCSELIR"}, "B9": {"name": "HESX1 WT (peptide)", "chain": "SKYENYFSASERLSLKRELSWYRG"}, "B10": {"name": "NECAB1 WT (peptide)", "chain": "FSPNSPQFNVSGPGLLEEDNQWMT"}, "B11": {"name": "VPS39 WT (peptide)", "chain": "ITEEKVCMVCKKKIGNSAFARYPN"}, "B12": {"name": "TRIM55 WT (peptide)", "chain": "FQASNPYLPTRGGTTMASGGRFRC"}, "B13": {"name": "SPRY1 WT (peptide)", "chain": "WIHRPGCRCKNSNTVYCKLESCPS"}, "B14": {"name": "C8orf76 WT (peptide)", "chain": "KLAEAYLNLGPALSAALASSQKQH"}, "B15": {"name": "CCDC70 WT (peptide)", "chain": "FSFKVSRWMGLACFRSLAASSPSI"}, "B16": {"name": "MED27 WT (peptide)", "chain": "YNENVYTEDGKLDIWSKSNYQVFQ"}, "B17": {"name": "VPS39 WT (peptide)", "chain": "LRLENNHCHIEESEHVLKKAHKYS"}, "B18": {"name": "HESX1 WT (peptide)", "chain": "ENKPSTCSFSIERILGLDQKKDCV"}, "B19": {"name": "HESX1 WT (peptide)", "chain": "QKKDCVPLMKPHRPWADTCSSSGK"}, "B20": {"name": "TRIM55 WT (peptide)", "chain": "ICPICLEMFTKPVVILPCQHNLCR"}, "B21": {"name": "ZNF232 WT (peptide)", "chain": "FPKSEQVYLHFLSVVTEDGPEPKD"}, "B22": {"name": "VPS39 WT (peptide)", "chain": "TTLLKCYLHTNVALVAPLLRLENN"}, "B23": {"name": "C8orf76 WT (peptide)", "chain": "LYLQLAICSSLQNLEKTIFCLQKL"}, "B24": {"name": "MLL5 WT (peptide)", "chain": "TYLCERCQPRNLDKERAVLLQRRK"}, "B25": {"name": "HESX1 WT (peptide)", "chain": "HVPNPPSGISFPSVVDHPMPEERA"}, "B26": {"name": "MLL5 WT (peptide)", "chain": "EQIAERKRKMVSWEASSLGLVTAA"}, "B27": {"name": "VPS39 WT (peptide)", "chain": "QQVKCIITEEKVCMVCKKKIGNSA"}}, "test": "protein stability index of a GFP-peptide fusion (GPS, HEK-293T) (PSI 1-6); higher = more stable", "conditions": "c terminus: a fixed tail appended", "data": [{"protein": "B1", "values": [{"measurement": "protein stability index", "setting": "parent: IOH40604_2", "value": 2.08}]}, {"protein": "B2", "values": [{"measurement": "protein stability index", "setting": "parent: IOH40143_16", "value": 3.06}]}, {"protein": "B3", "values": [{"measurement": "protein stability index", "setting": "parent: IOH40093_14", "value": 2.41}]}, {"protein": "B4", "values": [{"measurement": "protein stability index", "setting": "parent: IOH40091_6", "value": 2.25}]}, {"protein": "B5", "values": [{"measurement": "protein stability index", "setting": "parent: IOH40604_50", "value": 2.79}]}, {"protein": "B6", "values": [{"measurement": "protein stability index", "setting": "parent: IOH40631_2", "value": 3.21}]}, {"protein": "B7", "values": [{"measurement": "protein stability index", "setting": "parent: IOH40604_11", "value": 1.83}]}, {"protein": "B8", "values": [{"measurement": "protein stability index", "setting": "parent: IOH40635_69", "value": 2.02}]}, {"protein": "B9", "values": [{"measurement": "protein stability index", "setting": "parent: IOH40237_15", "value": 1.92}]}, {"protein": "B10", "values": [{"measurement": "protein stability index", "setting": "parent: IOH40093_33", "value": 2.95}]}, {"protein": "B11", "values": [{"measurement": "protein stability index", "setting": "parent: IOH40537_140", "value": 2.44}]}, {"protein": "B12", "values": [{"measurement": "protein stability index", "setting": "parent: IOH40604_10", "value": 1.74}]}, {"protein": "B13", "values": [{"measurement": "protein stability index", "setting": "parent: IOH39997_49", "value": 2.19}]}, {"protein": "B14", "values": [{"measurement": "protein stability index", "setting": "parent: IOH40091_29", "value": 2.78}]}, {"protein": "B15", "values": [{"measurement": "protein stability index", "setting": "parent: IOH40382_3", "value": 2.79}]}, {"protein": "B16", "values": [{"measurement": "protein stability index", "setting": "parent: IOH39902_37", "value": 2.11}]}, {"protein": "B17", "values": [{"measurement": "protein stability index", "setting": "parent: IOH40537_79", "value": 2.32}]}, {"protein": "B18", "values": [{"measurement": "protein stability index", "setting": "parent: IOH40237_3", "value": 3.12}]}, {"protein": "B19", "values": [{"measurement": "protein stability index", "setting": "parent: IOH40237_6", "value": 3.2}]}, {"protein": "B20", "values": [{"measurement": "protein stability index", "setting": "parent: IOH40604_5", "value": 2.21}]}, {"protein": "B21", "values": [{"measurement": "protein stability index", "setting": "parent: IOH40635_35", "value": 2.15}]}, {"protein": "B22", "values": [{"measurement": "protein stability index", "setting": "parent: IOH40537_76", "value": 3.28}]}, {"protein": "B23", "values": [{"measurement": "protein stability index", "setting": "parent: IOH40091_23", "value": 2.99}]}, {"protein": "B24", "values": [{"measurement": "protein stability index", "setting": "parent: IOH39874_27", "value": 2.15}]}, {"protein": "B25", "values": [{"measurement": "protein stability index", "setting": "parent: IOH40237_11", "value": 2.54}]}, {"protein": "B26", "values": [{"measurement": "protein stability index", "setting": "parent: IOH39874_95", "value": 2.83}]}, {"protein": "B27", "values": [{"measurement": "protein stability index", "setting": "parent: IOH40537_139", "value": 2.82}]}]}
